Broadly, the EC50 (read off the curve) is the concentration giving half of the maximal effect.

Results on three molecules are retold here after US20240084003A1 (SIMCERE ZAIMING PHARMACEUTICAL, published 2024).

In assay [1] the target is T1, human CD22-ECD-His protein (human, UniProt P20273 20-687).
T1 construct: Made in house in HEK293E; also called hCD22-ECD-His; recombinant human CD22-ECD His protein; not shown: His tag
T1 sequence: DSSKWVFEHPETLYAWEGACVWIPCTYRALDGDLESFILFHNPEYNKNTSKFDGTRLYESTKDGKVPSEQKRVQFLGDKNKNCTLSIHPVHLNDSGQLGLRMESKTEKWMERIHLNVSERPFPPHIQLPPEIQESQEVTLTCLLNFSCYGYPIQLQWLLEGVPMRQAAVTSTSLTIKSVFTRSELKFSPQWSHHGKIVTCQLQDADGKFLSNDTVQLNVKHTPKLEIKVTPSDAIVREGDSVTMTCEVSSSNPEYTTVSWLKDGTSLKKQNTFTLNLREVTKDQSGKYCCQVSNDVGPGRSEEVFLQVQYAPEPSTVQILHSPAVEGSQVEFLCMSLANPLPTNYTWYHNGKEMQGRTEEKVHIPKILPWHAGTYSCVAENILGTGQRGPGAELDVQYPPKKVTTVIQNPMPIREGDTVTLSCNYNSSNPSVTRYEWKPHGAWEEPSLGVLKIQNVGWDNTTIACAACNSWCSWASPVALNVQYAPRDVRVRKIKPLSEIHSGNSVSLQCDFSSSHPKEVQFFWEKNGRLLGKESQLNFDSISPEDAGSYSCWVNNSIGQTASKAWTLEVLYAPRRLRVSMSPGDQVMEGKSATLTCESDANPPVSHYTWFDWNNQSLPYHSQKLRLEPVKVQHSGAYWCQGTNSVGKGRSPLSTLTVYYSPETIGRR
Description: ELISA, Ab 0.01 nM. The method, then:
(§1) In order to detect the binding activity of CD22 human-murine chimeric antibodies to CD22 protein, the purified human CD22-ECD-His protein obtained in Example 2 was diluted with PBS to a final concentration of 2 μg/mL, and then added to 96-well ELISA plate at 100 μl/well. The plate was sealed with plastic film and incubated overnight at 4° C., the plate was washed 2 times with PBS the next day, and then a blocking solution [PBS+2% (w/w) BSA] was added for blocking at room temperature for 2 hours. […] After incubation at 37° C. for 2 hours, the plate was washed 3 times with PBS. HRP (horseradish peroxidase)-labeled secondary antibody (purchased from Sigma, catalog number: A0170) was added, and incubated at 37° C. for 2 hours, and the plate was washed 5 times with PBS. TMB substrate was added at 50 μl/well, and incubated at room temperature for 30 minutes, then a stop solution (1.0 N HCl) was added at 50 μl/well.

The target in assay [2] is T1, human CD22-ECD-His protein. Description: ELISA, Ab 0.10 nM. The method, then: as §1
Background: ELISA stands for enzyme-linked immunosorbent assay.

Assay [3] addresses T1, human CD22-ECD-His protein. Description: ELISA, Ab 0.001 nM. The method, then: as §1
The target in assay [4] is T1, human CD22-ECD-His protein. Description: ELISA, Ab 10.00 nM. The method, then: as §1
For assay [5], the target named is T1, human CD22-ECD-His protein. Description: ELISA, Ab 0.0001 nM. The method, then: as §1
Assay [6] has as its target T1, human CD22-ECD-His protein. Description: ELISA, Ab 100.00 nM. As for the experimental part:
as §1

In assay [7] the target is T1, human CD22-ECD-His protein. Description: ELISA, Ab 0.00001 nM. As for the experimental part:
as §1

Assay [8] deals with T1, human CD22-ECD-His protein. Description: ELISA, human CD22-ECD-His coated. The method, then: as §1
Assay [9] has as its target T2, murine CD22 protein (ACROBiosystems, SI2-M52Ha) (murine, UniProt P35329 22-708).
T2 construct: extracellular domain; also called murine CD22-ECD; murine CD22-ECD-His
T2 sequence (looked up): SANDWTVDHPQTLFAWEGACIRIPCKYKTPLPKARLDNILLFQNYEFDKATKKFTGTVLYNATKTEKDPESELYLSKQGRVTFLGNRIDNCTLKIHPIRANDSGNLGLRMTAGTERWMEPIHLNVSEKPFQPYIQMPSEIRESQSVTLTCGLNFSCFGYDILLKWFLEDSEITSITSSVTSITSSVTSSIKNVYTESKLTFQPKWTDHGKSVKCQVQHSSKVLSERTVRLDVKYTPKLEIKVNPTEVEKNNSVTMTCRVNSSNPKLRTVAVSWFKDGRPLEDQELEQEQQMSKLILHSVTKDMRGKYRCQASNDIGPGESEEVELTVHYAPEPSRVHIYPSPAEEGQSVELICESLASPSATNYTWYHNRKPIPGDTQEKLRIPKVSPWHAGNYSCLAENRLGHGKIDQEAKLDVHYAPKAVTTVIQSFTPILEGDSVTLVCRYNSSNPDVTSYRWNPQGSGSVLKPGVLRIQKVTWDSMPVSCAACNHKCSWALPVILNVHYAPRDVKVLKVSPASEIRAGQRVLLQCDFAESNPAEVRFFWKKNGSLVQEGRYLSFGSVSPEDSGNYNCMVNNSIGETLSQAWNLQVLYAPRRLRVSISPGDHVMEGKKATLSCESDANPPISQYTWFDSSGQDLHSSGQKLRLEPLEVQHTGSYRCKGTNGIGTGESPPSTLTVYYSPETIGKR
Description: ELISA, murine CD22-ECD-His coated. As for the experimental part: as §1
(§2) In order to detect the species cross-binding activity of the chimeric antibodies, an ELISA plate was coated with commercial murine CD22 protein (ACROBiosystems, catalog number: SI2-M52Ha) and monkey CD22 protein (ACROBiosystems, catalog number: SI2-R52Ha), respectively, and the ELISA detection was performed according to the method in Example 5.1.

A further assay has as its target T3, human CD22 domain1-4-His (human, UniProt P20273 20-425).
T3 construct: also called hCD22 domain1-4-His; not shown: His tag
T3 sequence: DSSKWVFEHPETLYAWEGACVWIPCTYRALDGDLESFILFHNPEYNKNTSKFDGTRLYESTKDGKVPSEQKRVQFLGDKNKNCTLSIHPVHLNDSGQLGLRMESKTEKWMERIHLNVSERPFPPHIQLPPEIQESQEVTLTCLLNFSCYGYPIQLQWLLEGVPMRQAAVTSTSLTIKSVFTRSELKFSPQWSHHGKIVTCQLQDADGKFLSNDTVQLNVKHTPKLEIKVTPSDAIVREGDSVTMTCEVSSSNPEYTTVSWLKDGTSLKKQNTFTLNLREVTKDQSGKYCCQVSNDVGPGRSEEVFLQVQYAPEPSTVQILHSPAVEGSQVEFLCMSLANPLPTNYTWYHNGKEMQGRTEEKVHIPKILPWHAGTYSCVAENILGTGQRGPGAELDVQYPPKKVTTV
Description: ELISA, human CD22 domain1-4-His coated.

The next assay addresses T4, human CD22 domain5-7-His (human, UniProt P20273 414-687).
T4 construct: also called hCD22 domain5-7-His; not shown: His tag
T4 sequence: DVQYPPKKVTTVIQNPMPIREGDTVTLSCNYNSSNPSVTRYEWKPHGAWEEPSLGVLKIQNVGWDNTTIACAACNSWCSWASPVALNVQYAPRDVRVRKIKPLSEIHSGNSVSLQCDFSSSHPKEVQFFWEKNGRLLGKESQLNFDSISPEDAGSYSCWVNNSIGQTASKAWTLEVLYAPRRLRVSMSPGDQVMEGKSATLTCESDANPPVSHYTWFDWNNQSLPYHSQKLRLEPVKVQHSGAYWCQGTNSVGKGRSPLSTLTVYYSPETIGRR
Description: ELISA, human CD22 domain5-7-His coated.

Assay [10] concerns the target T5, monkey CD22 protein (ACROBiosystems, SI2-R52Ha) (monkey (rhesus monkey in paragraph 148), UniProt H9G1X2 18-686).
T5 construct: extracellular domain; also called monkey CD22-ECD; monkey CD22-ECD-His
T5 sequence: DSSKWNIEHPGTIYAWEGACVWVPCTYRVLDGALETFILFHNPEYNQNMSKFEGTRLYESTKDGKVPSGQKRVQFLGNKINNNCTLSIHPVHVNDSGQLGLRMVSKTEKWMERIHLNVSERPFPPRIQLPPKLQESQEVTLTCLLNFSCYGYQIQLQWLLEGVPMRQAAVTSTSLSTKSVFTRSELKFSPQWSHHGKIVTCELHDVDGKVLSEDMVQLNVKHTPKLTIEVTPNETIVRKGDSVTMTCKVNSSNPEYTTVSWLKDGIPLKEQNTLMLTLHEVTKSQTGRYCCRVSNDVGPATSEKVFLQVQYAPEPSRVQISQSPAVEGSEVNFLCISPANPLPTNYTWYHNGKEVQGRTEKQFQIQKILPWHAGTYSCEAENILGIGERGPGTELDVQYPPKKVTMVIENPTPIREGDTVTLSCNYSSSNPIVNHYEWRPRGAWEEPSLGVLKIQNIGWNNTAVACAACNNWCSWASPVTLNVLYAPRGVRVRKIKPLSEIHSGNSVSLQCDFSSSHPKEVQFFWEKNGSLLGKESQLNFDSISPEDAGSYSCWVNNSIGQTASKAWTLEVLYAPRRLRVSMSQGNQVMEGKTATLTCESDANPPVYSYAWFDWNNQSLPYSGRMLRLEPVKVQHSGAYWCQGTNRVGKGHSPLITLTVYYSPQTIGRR
Description: ELISA, monkey CD22-ECD-His coated. As for the experimental part:
as §1, §2

B1: F2.151.13 (antibody, human IgG1, lambda, V domains shown)
VH: QVHLQQPGTELMKPGASVKLSCKATGYTFRDYWLEWVKQRPGHGLEWIGEILPGSGNAYYNEKFKGKATFTADTSSNTAYMQLSSLTTEDSAIYYCARVYSNWYFDAWGKGTTVTVSS
VL: QAVVTQESALTTSPGETVTLTCRSSTGAVTTSNYANWVQEKPDHLFTGLIGGTNNQAPGVPARFSGSLIGDKAALTISGAQTEDEAIYFCALWFSNHWVFGGGTKLTVLG
notes: Human-murine chimeric IgG1, lambda
On to B1, for which the OD450 in assay [1] was found to be 2.1 OD450; in assay [2], 2.55 OD450; in assay [3] it was 0.64 OD450; in [4] it was 2.6 OD450; in assay [5] it was 0.2 OD450; in assay [6], 3.28 OD450. In assay [7], this molecule displayed an OD450 of 0.1 OD450. Also, the figures for the “EC50 (read off the curve)” value (in [8]; in the assay with human CD22 domain5-7-His) were approximately 0.04 nM and approximately 0.05 nM, respectively. The binding result (in assay [9]; in the assay with human CD22 domain1-4-His) was “no binding (tested: 100 nM)” in each case.

B2: F1.250.16 (antibody, human IgG1, kappa, V domains shown)
VH: QVQLQQSGAEQVKPGASVKMSCKASGYTFTTYPIEWMKQNHGESLDWIGNIHPYNDDTEYNEKFKGKATLTVEKSSNTVFLELSRLTSDDSAVYYCVRGDYYNSRYWYFDVWGTGTTVTVSS
VL: DIVMTQSQKFMSTTVGDRVSITCKAGQNVRTAVAWYQQKPGQSPKLLIYSASTRYIGVPERFTGSGSGTDFTLTITNMQSEDLADYFCQQYSSFPLTFGTGTKLELKR
notes: Human-murine chimeric IgG1, kappa
Take B2: the OD450 in assay [1] was found to be 2.24 OD450; in assay [2], 2.58 OD450; in assay [3] it was 0.86 OD450; in assay [4], 2.56 OD450; in assay [5], 0.21 OD450; in assay [6], 3.07 OD450. Also, the OD450 in assay [7] amounted to 0.12 OD450. Also, the concentration for a half-maximal effect (EC50 (read off the curve)) in [8] and in assay [10] was approximately 0.02 nM in each case. Besides, the binding result (in [9]; with human CD22 domain5-7-His) was “no binding (tested: 100 nM)” in each case.

B3: F1.192.1 (antibody, human IgG1, kappa, V domains shown)
VH: AVQLQQSGVELVRPGASVKLSCTGSDFNIKEDYIHWVKQRPEQGLEWIGWIDPENGDTEYASKFQGKATITADTSSNTAYLQLSSLTSEDTAVYYCATYGSLDYWGQGTTLTVSS
VL: DIKMTQSPSSMYAFLGERVTITCKASQGINSFLTWFQQKPGKSPKTLIYRANRLVDGVPSRFSGSGSGQDYSLTISSLEYEDVGIYYCLQYDEFPRTFGGGTKLEIKR
notes: as for B2
Take B3: the OD450 in assay [1] was found to be 1.79 OD450; in assay [2], 2.52 OD450; in assay [3] it was 0.46 OD450; in [4] it was 2.57 OD450; in assay [5], 0.1 OD450; in assay [6] it was 2.71 OD450. Also, the OD450 in assay [7] is 0.06 OD450. Moreover, the “EC50 (read off the curve)” value is approximately 0.05 nM in assay [8] and approximately 0.1 nM with human CD22 domain5-7-His. For the same molecule, the binding result (in assay [9]; with human CD22 domain1-4-His) was “no binding (tested: 100 nM)” each time.
